From article PMC6812003 (Redox Biology, 2019)
Values belong to the molecule of their own block, whether it stands above or below them.

Assays:
[1] = biological target: recombinant p16^INK4A (wild type) (Homo sapiens) (UniProt P42771); experiment: non-reducing SDS-PAGE
co-IP = biological target: the molecule itself; experiment: co-IP
[2] = biological target: T1, endogenous p16^INK4A (human (endogenous in HEK293T)), P42771; experiment: co-IP; conditions: remark: other sources report otherwise
T1 chain: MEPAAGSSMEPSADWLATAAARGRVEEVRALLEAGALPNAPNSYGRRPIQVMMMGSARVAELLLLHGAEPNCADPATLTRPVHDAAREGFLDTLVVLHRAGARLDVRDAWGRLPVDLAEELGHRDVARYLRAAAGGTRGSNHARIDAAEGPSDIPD

stoichiometry N [1]: 2
Molecule: recombinant p16^INK4A (wild type) (from UniProt P42771 1-156) (natural protein)

B1: FLAG-p16^INK4A (wild type) (natural protein, human, UniProt P42771 9-156, looked up)
chain: MEPSADWLATAAARGRVEEVRALLEAGALPNAPNSYGRRPIQVMMMGSARVAELLLLHGAEPNCADPATLTRPVHDAAREGFLDTLVVLHRAGARLDVRDAWGRLPVDLAEELGHRDVARYLRAAAGGTRGSNHARIDAAEGPSDIPD
stoichiometry N (co-IP): 2

stoichiometry N [2]: 2
B2: endogenous p16^INK4A, P42771 1-156 (natural protein)
chain: MEPAAGSSMEPSADWLATAAARGRVEEVRALLEAGALPNAPNSYGRRPIQVMMMGSARVAELLLLHGAEPNCADPATLTRPVHDAAREGFLDTLVVLHRAGARLDVRDAWGRLPVDLAEELGHRDVARYLRAAAGGTRGSNHARIDAAEGPSDIPD
